According to paper PMC5709738 (The EMBO Journal, 2017):

Experiments:
[1] = target: T1, full-length Ctf19-Mcm21 (K. lactis) (Kluyveromyces lactis, UniProt Q6CRN7 1-270; Q6CVQ9 1-293); assay: MST
T1 chain 1: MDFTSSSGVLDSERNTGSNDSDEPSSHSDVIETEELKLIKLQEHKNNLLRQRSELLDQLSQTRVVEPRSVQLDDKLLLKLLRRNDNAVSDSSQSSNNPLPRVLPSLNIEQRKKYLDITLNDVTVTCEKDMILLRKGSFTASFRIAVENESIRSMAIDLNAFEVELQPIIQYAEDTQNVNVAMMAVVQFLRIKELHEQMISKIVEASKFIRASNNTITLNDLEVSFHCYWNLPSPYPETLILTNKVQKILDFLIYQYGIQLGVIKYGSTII
T1 chain 2: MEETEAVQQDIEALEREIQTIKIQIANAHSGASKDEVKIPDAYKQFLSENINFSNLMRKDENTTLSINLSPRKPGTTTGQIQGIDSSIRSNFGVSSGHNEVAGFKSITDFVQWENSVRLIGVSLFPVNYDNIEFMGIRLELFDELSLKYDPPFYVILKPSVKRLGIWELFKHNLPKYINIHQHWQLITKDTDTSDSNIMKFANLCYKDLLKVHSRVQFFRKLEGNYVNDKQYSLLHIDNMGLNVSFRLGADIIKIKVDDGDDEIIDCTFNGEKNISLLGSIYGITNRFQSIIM

[2] = target: T2, COMA (K. lactis, full length: Ame1, Ctf19, Mcm21, Okp1) (Kluyveromyces lactis, UniProt Q6CUE5 1-292; Q6CRN7 1-270; Q6CVQ9 1-293; Q6CJY0 1-383); assay: native MS; nanoflow spectra and tandem mode with collision-induced dissociation in the gas phase (argon); subassemblies stripped of subunits; settings: both partners purified
T2 construct: Ame1 of Kluyveromyces lactis; Ctf19 of Kluyveromyces lactis; Mcm21 of Kluyveromyces lactis; Okp1 of Kluyveromyces lactis; copies: + + +
T2 sequence (looked up) 1: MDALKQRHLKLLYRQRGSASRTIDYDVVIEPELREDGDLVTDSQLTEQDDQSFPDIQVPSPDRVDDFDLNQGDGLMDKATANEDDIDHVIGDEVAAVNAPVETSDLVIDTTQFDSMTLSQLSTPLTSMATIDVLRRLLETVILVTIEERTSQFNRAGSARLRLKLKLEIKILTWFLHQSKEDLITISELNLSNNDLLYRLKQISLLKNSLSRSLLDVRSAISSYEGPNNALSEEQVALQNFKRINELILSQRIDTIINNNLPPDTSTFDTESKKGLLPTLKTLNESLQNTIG
T2 sequence (looked up) 2: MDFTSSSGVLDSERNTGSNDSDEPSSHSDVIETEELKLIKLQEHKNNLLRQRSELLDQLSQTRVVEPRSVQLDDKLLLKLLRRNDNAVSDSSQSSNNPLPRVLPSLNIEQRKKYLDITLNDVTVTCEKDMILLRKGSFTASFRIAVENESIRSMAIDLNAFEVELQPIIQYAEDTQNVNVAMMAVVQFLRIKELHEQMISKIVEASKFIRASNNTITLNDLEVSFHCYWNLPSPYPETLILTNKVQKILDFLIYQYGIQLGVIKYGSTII
T2 sequence (looked up) 3: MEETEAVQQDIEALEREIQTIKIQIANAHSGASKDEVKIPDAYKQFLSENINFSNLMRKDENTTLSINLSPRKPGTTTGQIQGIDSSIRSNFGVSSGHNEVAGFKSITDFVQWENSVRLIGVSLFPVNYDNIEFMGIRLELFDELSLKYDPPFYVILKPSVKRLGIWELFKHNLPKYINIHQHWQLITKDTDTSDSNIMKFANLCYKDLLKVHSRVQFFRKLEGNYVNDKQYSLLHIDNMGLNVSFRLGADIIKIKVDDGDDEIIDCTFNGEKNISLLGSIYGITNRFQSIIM
T2 sequence (looked up) 4: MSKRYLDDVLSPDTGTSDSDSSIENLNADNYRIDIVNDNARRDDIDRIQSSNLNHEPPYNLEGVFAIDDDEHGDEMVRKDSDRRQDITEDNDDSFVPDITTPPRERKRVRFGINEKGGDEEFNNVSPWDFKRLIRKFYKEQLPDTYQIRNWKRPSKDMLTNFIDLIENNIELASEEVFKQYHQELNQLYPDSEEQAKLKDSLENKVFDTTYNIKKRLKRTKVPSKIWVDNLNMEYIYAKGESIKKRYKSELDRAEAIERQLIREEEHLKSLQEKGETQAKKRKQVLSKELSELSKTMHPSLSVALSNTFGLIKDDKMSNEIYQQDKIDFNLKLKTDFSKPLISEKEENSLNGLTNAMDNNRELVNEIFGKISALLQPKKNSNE

[3] = target: T3, Okp1 (K. lactis, full length) (Kluyveromyces lactis, UniProt Q6CJY0 1-383); assay: as above; settings: both partners purified
T3 construct: Okp1 (CENP-Q orthologue) of Kluyveromyces lactis; also called Okp1^CENP-Q; outer kinetochore protein 1; source: E. coli BL21 Rosetta 2(DE3)pLysS, co-expressed as COMA, purified
T3 sequence (looked up): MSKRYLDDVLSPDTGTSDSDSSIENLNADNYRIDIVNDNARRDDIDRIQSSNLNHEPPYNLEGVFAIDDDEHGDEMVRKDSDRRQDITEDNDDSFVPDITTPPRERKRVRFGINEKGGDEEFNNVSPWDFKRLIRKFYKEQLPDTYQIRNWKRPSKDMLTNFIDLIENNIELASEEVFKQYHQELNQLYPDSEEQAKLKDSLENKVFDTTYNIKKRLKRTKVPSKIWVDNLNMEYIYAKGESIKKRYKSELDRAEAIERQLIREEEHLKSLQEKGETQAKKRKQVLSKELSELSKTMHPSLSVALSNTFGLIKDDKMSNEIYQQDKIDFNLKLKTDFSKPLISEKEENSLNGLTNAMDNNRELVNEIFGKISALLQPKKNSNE

[4] = target: T4, Ame1-Okp1 (K. lactis, full length) (Kluyveromyces lactis, UniProt Q6CUE5 1-292; Q6CJY0 1-383); assay: as above; settings: both partners purified
T4 construct: Ame1 of Kluyveromyces lactis; Okp1 of Kluyveromyces lactis; stands as the Ame1-Okp1 part of COMA; also called Okp1-Ame1; source: E. coli BL21 Rosetta 2(DE3)pLysS, co-expressed with Ctf19 and Mcm21 versions
T4 sequence (looked up) 1: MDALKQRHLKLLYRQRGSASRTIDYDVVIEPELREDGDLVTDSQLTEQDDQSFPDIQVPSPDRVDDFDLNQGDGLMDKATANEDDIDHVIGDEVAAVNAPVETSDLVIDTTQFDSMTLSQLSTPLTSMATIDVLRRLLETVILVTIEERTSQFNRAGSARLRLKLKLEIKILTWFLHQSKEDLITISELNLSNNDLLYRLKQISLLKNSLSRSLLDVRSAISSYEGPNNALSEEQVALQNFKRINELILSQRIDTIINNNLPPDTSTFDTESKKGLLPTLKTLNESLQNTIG
T4 sequence (looked up) 2: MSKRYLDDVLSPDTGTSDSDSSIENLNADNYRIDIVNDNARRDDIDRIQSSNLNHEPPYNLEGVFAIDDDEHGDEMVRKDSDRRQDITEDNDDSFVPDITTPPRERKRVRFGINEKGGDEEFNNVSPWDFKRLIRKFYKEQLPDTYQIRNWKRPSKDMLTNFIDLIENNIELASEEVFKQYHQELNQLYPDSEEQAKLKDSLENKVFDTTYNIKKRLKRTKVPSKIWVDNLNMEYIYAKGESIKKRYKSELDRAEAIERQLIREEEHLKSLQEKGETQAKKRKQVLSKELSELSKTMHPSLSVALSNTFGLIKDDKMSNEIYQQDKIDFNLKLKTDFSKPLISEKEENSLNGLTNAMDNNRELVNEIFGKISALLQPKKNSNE

[5] = target: the molecule itself; assay: native MS; nanoflow electrospray of intact assemblies in 200 mM ammonium acetate pH 6.7-7.3 or 7.4; higher micromolar concentrations (COMA ~3 or ~6 uM; COMA-Nkp1-Nkp2 ~3 uM)
[6] = target: T5, full-length Ctf19-Mcm21 (K. lactis) (Kluyveromyces lactis, UniProt Q6CRN7 1-270; Q6CVQ9 1-293); assay: MST; Ctf19-Mcm21 labelled with NT-647-NHS on lysines, ~27 nM; dilution series of peptide; 22-25°C; ITC/MST buffer; three dilution series; settings: both partners purified
T5 construct: Ctf19 of Kluyveromyces lactis; Mcm21 of Kluyveromyces lactis; for microscale thermophoresis it was labelled on lysine side chains with the red dye NT-647-NHS; also stands for the Ctf19-Mcm21 subassembly of COMA in nanoflow mass spectra; source: E. coli BL21 Rosetta 2(DE3)pLysS, co-expressed, purified
T5 sequence (looked up) 1: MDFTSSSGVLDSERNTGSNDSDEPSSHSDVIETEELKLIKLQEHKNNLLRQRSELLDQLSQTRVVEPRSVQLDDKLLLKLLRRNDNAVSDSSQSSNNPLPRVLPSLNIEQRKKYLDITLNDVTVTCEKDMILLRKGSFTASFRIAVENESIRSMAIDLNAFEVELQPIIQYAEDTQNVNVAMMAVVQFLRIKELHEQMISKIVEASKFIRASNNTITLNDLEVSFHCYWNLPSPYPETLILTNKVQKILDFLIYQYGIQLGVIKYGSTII
T5 sequence (looked up) 2: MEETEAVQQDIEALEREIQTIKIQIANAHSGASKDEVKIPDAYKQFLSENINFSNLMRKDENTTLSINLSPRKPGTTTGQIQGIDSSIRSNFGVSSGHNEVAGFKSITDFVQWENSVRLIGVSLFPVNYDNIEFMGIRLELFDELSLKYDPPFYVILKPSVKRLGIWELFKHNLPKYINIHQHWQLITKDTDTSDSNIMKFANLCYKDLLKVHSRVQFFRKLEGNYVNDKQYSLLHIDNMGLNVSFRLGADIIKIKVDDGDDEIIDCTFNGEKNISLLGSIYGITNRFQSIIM

## SNEIYQQDKIDANLKLKTDF (synthetic peptide; terminal chemistry not stated) [F329A]
[1]
  Kd: 25.3 µM

B1: Nkp1 (K. lactis) (natural protein, Kluyveromyces lactis, UniProt Q6CPR4 1-210, looked up)
chain: MDLESEIIQLVRQNIRPKFPSLNDEQQARLDNALKYDVNYDILKKELVEYIDDWKRNEYYDVLTNIGDLQRLDLGNMLNGDGVSFPKLHSDLANLPRFRLIDNENEMDQSLLHKYDSLRTRLIEKCRAIELIRSATNTDVNYQDINSMLSVVELRQWRDEIQMEWKELAQNLELILKTWPDLTEEKRSKLLQLIDSSSLKSILHIKDNIE
notes: Nkp1 of Kluyveromyces lactis; also called non-essential kinetochore protein 1; HisNkp1; source: E. coli BL21 Rosetta 2(DE3)pLysS, purified
[2]
  binding result: binds
[3]
  binding result: binds
[4]
  binding result: binds

B2: COMA-Nkp1-Nkp2 (K. lactis, full length) (complex, Kluyveromyces lactis)
chain 1: MDALKQRHLKLLYRQRGSASRTIDYDVVIEPELREDGDLVTDSQLTEQDDQSFPDIQVPSPDRVDDFDLNQGDGLMDKATANEDDIDHVIGDEVAAVNAPVETSDLVIDTTQFDSMTLSQLSTPLTSMATIDVLRRLLETVILVTIEERTSQFNRAGSARLRLKLKLEIKILTWFLHQSKEDLITISELNLSNNDLLYRLKQISLLKNSLSRSLLDVRSAISSYEGPNNALSEEQVALQNFKRINELILSQRIDTIINNNLPPDTSTFDTESKKGLLPTLKTLNESLQNTIG
chain 2: MDFTSSSGVLDSERNTGSNDSDEPSSHSDVIETEELKLIKLQEHKNNLLRQRSELLDQLSQTRVVEPRSVQLDDKLLLKLLRRNDNAVSDSSQSSNNPLPRVLPSLNIEQRKKYLDITLNDVTVTCEKDMILLRKGSFTASFRIAVENESIRSMAIDLNAFEVELQPIIQYAEDTQNVNVAMMAVVQFLRIKELHEQMISKIVEASKFIRASNNTITLNDLEVSFHCYWNLPSPYPETLILTNKVQKILDFLIYQYGIQLGVIKYGSTII
chain 3: MEETEAVQQDIEALEREIQTIKIQIANAHSGASKDEVKIPDAYKQFLSENINFSNLMRKDENTTLSINLSPRKPGTTTGQIQGIDSSIRSNFGVSSGHNEVAGFKSITDFVQWENSVRLIGVSLFPVNYDNIEFMGIRLELFDELSLKYDPPFYVILKPSVKRLGIWELFKHNLPKYINIHQHWQLITKDTDTSDSNIMKFANLCYKDLLKVHSRVQFFRKLEGNYVNDKQYSLLHIDNMGLNVSFRLGADIIKIKVDDGDDEIIDCTFNGEKNISLLGSIYGITNRFQSIIM
chain 4: MSKRYLDDVLSPDTGTSDSDSSIENLNADNYRIDIVNDNARRDDIDRIQSSNLNHEPPYNLEGVFAIDDDEHGDEMVRKDSDRRQDITEDNDDSFVPDITTPPRERKRVRFGINEKGGDEEFNNVSPWDFKRLIRKFYKEQLPDTYQIRNWKRPSKDMLTNFIDLIENNIELASEEVFKQYHQELNQLYPDSEEQAKLKDSLENKVFDTTYNIKKRLKRTKVPSKIWVDNLNMEYIYAKGESIKKRYKSELDRAEAIERQLIREEEHLKSLQEKGETQAKKRKQVLSKELSELSKTMHPSLSVALSNTFGLIKDDKMSNEIYQQDKIDFNLKLKTDFSKPLISEKEENSLNGLTNAMDNNRELVNEIFGKISALLQPKKNSNE
chain 5: MDLESEIIQLVRQNIRPKFPSLNDEQQARLDNALKYDVNYDILKKELVEYIDDWKRNEYYDVLTNIGDLQRLDLGNMLNGDGVSFPKLHSDLANLPRFRLIDNENEMDQSLLHKYDSLRTRLIEKCRAIELIRSATNTDVNYQDINSMLSVVELRQWRDEIQMEWKELAQNLELILKTWPDLTEEKRSKLLQLIDSSSLKSILHIKDNIE
chain 6: MLHEVLYKHLDGILVSRLYTEDQFVDLFSRTIPESNTVIASQLYKSYEENDQRIIEKIDKLIDNKLSLIRVELEREQIEDSISLEEVNKLLHSIDDMLQQHLNQLNIELDNKNTKLLKYAMELSDIEAIDTSMYDNVAKLITDMETNQPSS
notes: Ame1 of Kluyveromyces lactis; Ctf19 of Kluyveromyces lactis; Mcm21 of Kluyveromyces lactis; N-terminal SNA residual; Okp1 of Kluyveromyces lactis; Nkp1 of Kluyveromyces lactis; Nkp2 of Kluyveromyces lactis; source: E. coli BL21 Rosetta 2(DE3)pLysS, reconstituted, purified (SEC); not shown: polyhistidine, N-terminal, cleaved; copies: + + + + +
[5]
  stoichiometry N: 2

## SNEIYQQDKIDFNLPLKTDF (synthetic peptide; terminal chemistry not stated) [K332P]
[1]
  Kd: 9.75 µM

B3: Okp1 peptide variant N330A (peptide, UniProt Q6CJY0 318-337, looked up)
peptide: SNEIYQQDKIDFALKLKTDF
notes: source: synthetic peptide (Protein Chemistry core facility, IMP, Vienna)
[6]
  binding result: binds
[1]
  Kd: 5.51 µM
